Test results taken from patent CN108948194A.

B1: W3162-1.146.19-z12-IgGk (antibody, from another filing, V domains shown)
VH: QVQLQESGPGLVKPSETLSLTCSVTYHTITSGYDWTWIRKPPGKGMEWIGYISYSGNTNYNPSLKSRVTISRDTSKNQFFLKLSSVTAADTAVYYCASMMVPHYYVMDAWGQGTLVTVSS
VL: DIVMTQTPLSLSVTPGQPASISCRSSQSLLNSDGNTYLYWYLQKPGQSPQLLIYLVSKLGSGVPNRFSGSGSGTDFTLKISRVEAEDVGVYYCVQGTHDPWTFGGGTKVEIK
B2: W3162-1.154.8-z35-IgGk (antibody, from another filing, V domains shown)
VH: QVQLVQSGAEVKKPGSSVKVSCKASGYTFTNYFMNWVRQAPGQGLEWMGRVDPEQGRADYAEKFKKRVTITADKSTSTAYMELSSLRSEDTAVYYCARRAMDNYGFAYWGQGTLVTVSS
VL: EIVLTQSPDFQSVTPKEKVTITCSANSALSYMYWYQQKPDQSPKLWVHGTSNLASGVPSRFSGSGSGTDFTLTINSLEAEDAATYYCHHWSNTQWTFGGGTKVEIK

Experiments:
[1] = target: 全长人CTLA-4 on cells (293F stable line) (human) (UniProt P16410); test: FACS on 293F cells expressing human CTLA-4
[2] = target: 人CTLA-4.ECD-6xHis (human) (UniProt P16410); test: ELISA; human CTLA-4.ECD-6xHis coated at 1.0 μg/mL
[3] = target: 小鼠CTLA-4.ECD-6xHis (mouse) (UniProt P09793); test: ELISA; mouse CTLA-4.ECD-6xHis coated at 0.5 μg/mL
[4] = target: T1, 食蟹猴CTLA-4.ECD-6xHis (cynomolgus monkey) (UniProt G7PL88); test: ELISA; cynomolgus CTLA-4.ECD-6xHis coated at 0.5 μg/mL
T1 sequence: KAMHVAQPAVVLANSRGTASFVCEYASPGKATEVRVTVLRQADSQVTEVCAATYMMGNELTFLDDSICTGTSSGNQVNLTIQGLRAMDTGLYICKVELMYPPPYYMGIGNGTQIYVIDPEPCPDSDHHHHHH

[5] = target: 小鼠CTLA-4.ECD-6xHis (mouse) (UniProt P09793); test: SPR; antibody captured, mouse CTLA-4.ECD-6xHis as analyte, 1:1 fit
[6] = target: T1, 食蟹猴CTLA-4.ECD-6xHis (cynomolgus monkey); test: SPR; antibody captured, cynomolgus CTLA-4.ECD-6xHis as analyte, 1:1 fit
[7] = target: 全长人CTLA-4 on cells (293F stable line) (human) (UniProt P16410); test: FACS affinity (modified Benedict method) on cells expressing human CTLA-4
人CTLA-4.ECD.hFc (human) [8] = target: 人CTLA-4.ECD.hFc (human) (UniProt P16410); test: competition ELISA; CTLA-4.ECD.hFc coated, competitor CD80-6xHis at 0.25 μg/mL
人CTLA-4.ECD.hFc (human) [9] = target: 人CTLA-4.ECD.hFc (human) (UniProt P16410); test: competition ELISA; CTLA-4.ECD.hFc coated, competitor CD86-6xHis at 0.25 μg/mL
[10] = target: 人CTLA-4.ECD-6xHis (human) (UniProt P16410); test: SPR (Biacore T200); antibody captured on anti-human Fc, hCTLA-4.ECD-6xHis as analyte, 1:1 fit
人CTLA-4.ECD.hFc (human) [11] = target: 人CTLA-4.ECD.hFc (human) (UniProt P16410); test: FACS competition; biotinylated hCTLA-4.ECD.hFc on CD80-expressing CHO cells (competitor CD80)
人CTLA-4.ECD.hFc (human) [12] = target: 人CTLA-4.ECD.hFc (human) (UniProt P16410); test: FACS competition; biotinylated hCTLA-4.ECD.hFc on CD86-expressing CHO cells (competitor CD86)

Binder	EC50 [1]	EC50 [2]	EC50 [3]	EC50 [4]	Kd [5]	Kd [6]	Kd [7]	IC50 (人CTLA-4.ECD.hFc (human) [8])	IC50 (人CTLA-4.ECD.hFc (human) [9])	Kd [10]	IC50 (人CTLA-4.ECD.hFc (human) [11])	percent of CTLA-4 binding blocked at the highest concentration (人CTLA-4.ECD.hFc (human) [11])	IC50 (人CTLA-4.ECD.hFc (human) [12])	percent of CTLA-4 binding blocked at the highest concentration (人CTLA-4.ECD.hFc (human) [12])
B1	1.58 nM	0.03 nM	0.19 nM	0.05 nM	1.39 nM	1.92 nM	5.05 nM	0.87 nM	0.71 nM	0.477 nM	6.6 nM	71%	5.15 nM	73%
B2	0.66 nM	0.04 nM		0.05 nM		0.131 nM	0.35 nM	0.63 nM	0.5 nM	0.0968 nM	0.07 nM	89%	0.28 nM	98%
